Source: paper PMC9482650, “Quantitative fragmentomics allow affinity mapping of interactomes” (Nature Communications, 2022)
Each block holds one binder with its values, some of them ahead of it.

Legend:
Assay in all cases: holdup assay
Parameters in all cases: key: below the threshold = too weak to quantify, mostly under pKd 3.1 to 4
Settings in all cases: plain residues with an end cap or a label only (N-terminal biotin on a linker: ado-ado)
[1] = target: T1, GRIP1_5, Q9Y3R0
T1 sequence (Q9Y3R0 568-668, limits assumed, looked up): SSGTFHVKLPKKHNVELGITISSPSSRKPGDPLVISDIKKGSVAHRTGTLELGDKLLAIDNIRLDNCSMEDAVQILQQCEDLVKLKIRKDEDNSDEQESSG

[2] = target: NOS1, P29475
NOS1, P29475, sequence (P29475 9-101): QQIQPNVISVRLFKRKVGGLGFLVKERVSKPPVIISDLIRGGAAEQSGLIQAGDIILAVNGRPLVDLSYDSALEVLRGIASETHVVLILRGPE

[3] = target: T2, DFNB31_3, Q9P202
T2 sequence (Q9P202 811-907, limits assumed, looked up): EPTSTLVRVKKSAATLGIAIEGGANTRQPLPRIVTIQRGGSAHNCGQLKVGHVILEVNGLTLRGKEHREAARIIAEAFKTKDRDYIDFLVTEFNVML

[4] = target: T3, LNX2_2, Q8N448
T3 sequence (Q8N448 334-432, limits assumed, looked up): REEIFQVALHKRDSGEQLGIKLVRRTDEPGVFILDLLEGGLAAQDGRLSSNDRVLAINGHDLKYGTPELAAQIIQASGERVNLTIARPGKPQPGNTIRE

[5] = target: IL16_1, Q14005
IL16_1, Q14005, sequence (Q14005 210-306): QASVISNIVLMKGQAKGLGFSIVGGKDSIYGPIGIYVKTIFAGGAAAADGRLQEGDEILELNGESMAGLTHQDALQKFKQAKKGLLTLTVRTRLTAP

[6] = target: NHERF4_1, Q86UT5-2
NHERF4_1, Q86UT5-2, sequence (Q86UT5 other isoform, or with tags, fused parts or gaps): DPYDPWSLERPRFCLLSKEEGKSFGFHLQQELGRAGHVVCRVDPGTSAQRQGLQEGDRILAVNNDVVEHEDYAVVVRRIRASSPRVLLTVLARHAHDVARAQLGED

[7] = target: T4, PCLO, Q9Y6V0
T4 sequence (Q9Y6V0 4491-4600, limits assumed, looked up): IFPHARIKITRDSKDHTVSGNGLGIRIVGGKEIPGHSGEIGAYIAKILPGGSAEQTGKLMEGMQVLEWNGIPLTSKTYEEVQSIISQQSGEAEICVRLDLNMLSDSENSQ

[8] = target: PICK1, Q9NRD5
PICK1, Q9NRD5, sequence (Q9NRD5 17-115): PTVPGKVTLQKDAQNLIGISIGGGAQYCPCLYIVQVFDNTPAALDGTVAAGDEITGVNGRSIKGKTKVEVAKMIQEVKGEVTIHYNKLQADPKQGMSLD

[9] = target: PTPN3, P26045
PTPN3, P26045, sequence (P26045 505-587): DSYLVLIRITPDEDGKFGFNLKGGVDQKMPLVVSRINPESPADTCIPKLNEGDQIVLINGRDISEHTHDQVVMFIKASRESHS

[10] = target: DLG2_2, Q15700
DLG2_2, Q15700, sequence (Q15700 189-283): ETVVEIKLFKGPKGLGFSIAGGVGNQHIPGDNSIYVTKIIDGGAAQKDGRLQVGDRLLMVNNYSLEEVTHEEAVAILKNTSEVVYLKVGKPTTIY

[11] = target: Inadl_6, Q8NI35
Inadl_6, Q8NI35, sequence (Q8NI35 1058-1167): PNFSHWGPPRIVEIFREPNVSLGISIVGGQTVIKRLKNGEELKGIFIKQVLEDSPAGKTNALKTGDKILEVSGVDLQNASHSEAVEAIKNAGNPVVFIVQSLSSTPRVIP

[12] = target: T5, TJP3_3, O95049
T5 sequence (O95049 375-456, limits assumed, looked up): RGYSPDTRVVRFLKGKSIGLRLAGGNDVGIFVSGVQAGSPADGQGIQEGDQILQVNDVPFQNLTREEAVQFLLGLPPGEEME

[13] = target: T6, MPP2, Q14168
T6 sequence (Q14168 180-250, limits assumed, looked up): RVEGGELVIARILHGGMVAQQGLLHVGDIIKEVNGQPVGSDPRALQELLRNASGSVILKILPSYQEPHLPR

[14] = target: TJP1_3, Q07157
TJP1_3, Q07157, sequence (Q07157 416-512): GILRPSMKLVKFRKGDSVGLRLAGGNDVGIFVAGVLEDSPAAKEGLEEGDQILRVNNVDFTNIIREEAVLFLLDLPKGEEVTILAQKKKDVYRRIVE

[15] = target: T7, TIAM2, Q8IVF5
T7 sequence (Q8IVF5 885-986, limits assumed, looked up): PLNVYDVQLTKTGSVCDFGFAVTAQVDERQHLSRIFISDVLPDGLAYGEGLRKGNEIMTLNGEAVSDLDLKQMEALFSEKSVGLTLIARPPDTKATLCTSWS

[16] = target: T8, NHERF3_3, Q5T2W1
T8 sequence (Q5T2W1 238-333, limits assumed, looked up): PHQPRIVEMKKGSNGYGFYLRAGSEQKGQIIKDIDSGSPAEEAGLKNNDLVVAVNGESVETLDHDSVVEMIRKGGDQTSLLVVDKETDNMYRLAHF

[17] = target: MAGI2_6, Q86UL8
MAGI2_6, Q86UL8, sequence (Q86UL8 1141-1229): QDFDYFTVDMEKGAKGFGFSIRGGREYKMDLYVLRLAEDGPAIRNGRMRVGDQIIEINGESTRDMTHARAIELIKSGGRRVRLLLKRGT

[18] = target: DLG5_1, Q8TDM6
DLG5_1, Q8TDM6, sequence (Q8TDM6 617-713): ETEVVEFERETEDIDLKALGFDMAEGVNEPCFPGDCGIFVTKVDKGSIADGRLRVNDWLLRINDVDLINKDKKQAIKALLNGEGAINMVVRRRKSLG

[19] = target: Inadl_8, Q8NI35
Inadl_8, Q8NI35, sequence (Q8NI35 1425-1530): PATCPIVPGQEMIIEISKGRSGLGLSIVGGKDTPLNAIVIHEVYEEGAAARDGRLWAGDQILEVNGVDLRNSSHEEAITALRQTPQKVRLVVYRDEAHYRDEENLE

[20] = target: T9, NHERF3_1, Q5T2W1
T9 sequence (Q5T2W1 4-100, limits assumed, looked up): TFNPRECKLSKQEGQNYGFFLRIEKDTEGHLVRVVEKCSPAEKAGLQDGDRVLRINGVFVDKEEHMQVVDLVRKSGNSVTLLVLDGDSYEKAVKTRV

[21] = target: MAGI2_2, Q86UL8
MAGI2_2, Q86UL8, sequence (Q86UL8 410-522): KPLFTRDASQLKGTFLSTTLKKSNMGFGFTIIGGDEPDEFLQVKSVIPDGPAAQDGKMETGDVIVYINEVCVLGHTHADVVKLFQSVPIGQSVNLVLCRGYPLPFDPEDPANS

[22] = target: FRMPD2_3, Q68DX3
FRMPD2_3, Q68DX3, sequence (Q68DX3 1073-1166): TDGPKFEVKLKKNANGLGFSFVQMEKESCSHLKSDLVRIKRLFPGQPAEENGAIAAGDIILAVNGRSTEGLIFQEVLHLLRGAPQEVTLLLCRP

[23] = target: T10, SHANK1, Q9Y566
T10 sequence (Q9Y566 658-767, limits assumed, looked up): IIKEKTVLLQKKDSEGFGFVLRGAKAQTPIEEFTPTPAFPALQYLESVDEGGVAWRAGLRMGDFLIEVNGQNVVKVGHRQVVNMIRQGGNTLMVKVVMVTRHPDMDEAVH

[24] = target: GORASP1, Q9BQQ3
GORASP1, Q9BQQ3, sequence (Q9BQQ3 1-208): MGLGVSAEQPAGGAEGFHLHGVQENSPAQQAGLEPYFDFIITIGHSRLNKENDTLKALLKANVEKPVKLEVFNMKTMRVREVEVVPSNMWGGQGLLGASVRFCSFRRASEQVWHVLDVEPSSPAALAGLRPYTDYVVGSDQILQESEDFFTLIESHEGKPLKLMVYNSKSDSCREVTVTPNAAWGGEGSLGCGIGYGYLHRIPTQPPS

[25] = target: DLG4_2, P78352
DLG4_2, P78352, sequence (P78352 155-259): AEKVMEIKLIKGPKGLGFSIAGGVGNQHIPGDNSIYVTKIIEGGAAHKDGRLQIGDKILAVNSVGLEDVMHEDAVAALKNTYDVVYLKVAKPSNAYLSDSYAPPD

[26] = target: GRID2IP_1, A4D2P6
GRID2IP_1, A4D2P6, sequence (A4D2P6 1-87): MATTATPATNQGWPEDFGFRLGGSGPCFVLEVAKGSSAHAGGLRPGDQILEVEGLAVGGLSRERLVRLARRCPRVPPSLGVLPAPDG

[27] = target: DLG4_1, P78352
DLG4_1, P78352, sequence (P78352 62-152): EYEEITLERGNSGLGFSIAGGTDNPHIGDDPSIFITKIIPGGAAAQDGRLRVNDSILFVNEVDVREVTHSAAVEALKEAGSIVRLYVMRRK

B1: GRM5, P41594 (peptide)
chain: RDYTQSSSSL
pKd [1]: below the threshold | pKd [2]: below the threshold | pKd [3]: below the threshold | pKd [4]: below the threshold | pKd [5]: below the threshold | pKd [6]: 4.13 | pKd [7]: below the threshold | pKd [8]: 4.11 | pKd [9]: 4.27 | pKd [10]: below the threshold | pKd [11]: below the threshold | pKd [12]: below the threshold | pKd [13]: below the threshold | pKd [14]: below the threshold | pKd [15]: 3.8 | pKd [16]: below the threshold | pKd [17]: 3.49 | pKd [18]: below the threshold | pKd [19]: below the threshold | pKd [20]: 5.02 | pKd [21]: below the threshold | pKd [22]: below the threshold | pKd [23]: 4.7 | pKd [24]: below the threshold | pKd [25]: below the threshold | pKd [26]: below the threshold | pKd [27]: below the threshold

B4: POLR1D, P0DPB6 (peptide)
chain: QKASRNESTF
pKd [1]: below the threshold | pKd [2]: below the threshold | pKd [3]: below the threshold | pKd [4]: below the threshold | pKd [5]: below the threshold | pKd [6]: below the threshold | pKd [7]: below the threshold | pKd [8]: 4.01 | pKd [9]: 4.62 | pKd [10]: below the threshold | pKd [11]: below the threshold | pKd [12]: below the threshold | pKd [13]: below the threshold | pKd [14]: below the threshold | pKd [15]: 3.92 | pKd [16]: below the threshold | pKd [17]: below the threshold | pKd [18]: below the threshold | pKd [19]: below the threshold | pKd [20]: below the threshold | pKd [21]: below the threshold | pKd [22]: below the threshold | pKd [23]: below the threshold | pKd [24]: below the threshold | pKd [25]: below the threshold | pKd [26]: below the threshold | pKd [27]: below the threshold

Second part, the binder after the results:

pKd [1]: below the threshold | pKd [2]: below the threshold | pKd [3]: 3.49 | pKd [4]: below the threshold | pKd [5]: below the threshold | pKd [6]: below the threshold | pKd [7]: below the threshold | pKd [8]: below the threshold | pKd [9]: 3.8 | pKd [10]: below the threshold | pKd [11]: below the threshold | pKd [12]: below the threshold | pKd [13]: below the threshold | pKd [14]: below the threshold | pKd [15]: 4.04 | pKd [16]: below the threshold | pKd [17]: below the threshold | pKd [18]: below the threshold | pKd [19]: below the threshold | pKd [20]: below the threshold | pKd [21]: below the threshold | pKd [22]: below the threshold | pKd [23]: below the threshold | pKd [24]: below the threshold | pKd [25]: below the threshold | pKd [26]: below the threshold | pKd [27]: below the threshold
B2: SDC3, O75056 (peptide)
chain: KPDKQEEFYA

pKd [1]: below the threshold | pKd [2]: 3.61 | pKd [3]: 3.53 | pKd [4]: below the threshold | pKd [5]: below the threshold | pKd [6]: 4.22 | pKd [7]: below the threshold | pKd [8]: 4.25 | pKd [9]: 3.77 | pKd [10]: below the threshold | pKd [11]: below the threshold | pKd [12]: below the threshold | pKd [13]: below the threshold | pKd [14]: below the threshold | pKd [15]: below the threshold | pKd [16]: 3.7 | pKd [17]: below the threshold | pKd [18]: below the threshold | pKd [19]: below the threshold | pKd [20]: 4.06 | pKd [21]: 3.54 | pKd [22]: 3.53 | pKd [23]: 4.71 | pKd [24]: below the threshold | pKd [25]: below the threshold | pKd [26]: below the threshold | pKd [27]: below the threshold
B3: GRK6, P43250 (peptide)
chain: DSEEELPTRL

pKd [1]: below the threshold | pKd [2]: 3.68 | pKd [3]: below the threshold | pKd [4]: below the threshold | pKd [5]: below the threshold | pKd [6]: 4.08 | pKd [7]: below the threshold | pKd [8]: below the threshold | pKd [9]: below the threshold | pKd [10]: below the threshold | pKd [11]: below the threshold | pKd [12]: below the threshold | pKd [13]: below the threshold | pKd [14]: below the threshold | pKd [15]: below the threshold | pKd [16]: below the threshold | pKd [17]: below the threshold | pKd [18]: below the threshold | pKd [19]: below the threshold | pKd [20]: below the threshold | pKd [21]: below the threshold | pKd [22]: below the threshold | pKd [23]: below the threshold | pKd [24]: 3.57 | pKd [25]: below the threshold | pKd [26]: below the threshold | pKd [27]: below the threshold
B5: TBPL1, P62380 (peptide)
chain: FVFESRKEIL
